In patent US20210015937A1 (CRESCENDO BIOLOGICS, published 2021):

T1: human LAG-3 expressed on cells (human, UniProt P18627 23-525)
T1 sequence: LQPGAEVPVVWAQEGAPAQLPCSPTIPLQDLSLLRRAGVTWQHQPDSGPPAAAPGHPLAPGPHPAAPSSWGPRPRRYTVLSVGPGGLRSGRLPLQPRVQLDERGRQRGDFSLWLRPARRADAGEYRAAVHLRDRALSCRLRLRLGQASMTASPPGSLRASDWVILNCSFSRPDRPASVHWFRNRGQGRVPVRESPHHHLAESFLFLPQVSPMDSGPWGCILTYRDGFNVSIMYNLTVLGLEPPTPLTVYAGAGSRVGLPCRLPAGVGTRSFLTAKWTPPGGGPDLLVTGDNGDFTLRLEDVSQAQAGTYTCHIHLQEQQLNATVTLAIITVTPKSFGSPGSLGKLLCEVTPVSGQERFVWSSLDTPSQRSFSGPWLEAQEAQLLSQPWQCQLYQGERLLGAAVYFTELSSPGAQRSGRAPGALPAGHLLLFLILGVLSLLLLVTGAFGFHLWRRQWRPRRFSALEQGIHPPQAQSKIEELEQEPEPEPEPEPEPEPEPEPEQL

T2: recombinant human LAG-3-Fc (human, UniProt P18627 23-450)
T2 construct: also called human LAG-3 (R&D Systems cat no. 2319-L3); LAG3 antigen
T2 sequence: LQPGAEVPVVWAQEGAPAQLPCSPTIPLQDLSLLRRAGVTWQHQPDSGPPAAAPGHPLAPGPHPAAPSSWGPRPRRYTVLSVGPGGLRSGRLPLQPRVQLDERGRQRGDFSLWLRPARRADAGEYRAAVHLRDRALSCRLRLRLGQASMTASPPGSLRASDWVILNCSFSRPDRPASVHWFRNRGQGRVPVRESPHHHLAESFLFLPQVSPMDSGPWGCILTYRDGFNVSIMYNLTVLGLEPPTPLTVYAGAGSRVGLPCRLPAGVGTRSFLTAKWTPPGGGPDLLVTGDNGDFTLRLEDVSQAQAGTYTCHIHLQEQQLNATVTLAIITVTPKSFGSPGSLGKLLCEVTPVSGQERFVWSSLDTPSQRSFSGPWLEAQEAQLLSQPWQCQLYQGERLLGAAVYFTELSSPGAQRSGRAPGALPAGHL


Assays:
[1] = molecular target: T3, human PD-1 expressed on cells (human, UniProt Q15116 25-288); assay: cell-based or functional assay
T3 sequence (Q15116 25-288 limits assumed): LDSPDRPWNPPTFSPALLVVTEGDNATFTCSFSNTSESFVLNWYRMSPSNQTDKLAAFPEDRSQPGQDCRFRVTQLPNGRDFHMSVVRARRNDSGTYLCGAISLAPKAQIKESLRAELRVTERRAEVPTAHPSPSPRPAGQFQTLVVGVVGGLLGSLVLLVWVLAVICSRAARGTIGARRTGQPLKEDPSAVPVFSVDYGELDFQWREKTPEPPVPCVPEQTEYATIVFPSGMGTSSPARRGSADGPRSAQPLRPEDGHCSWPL

[2] = molecular target: T3, human PD-1 expressed on cells; assay: cell-based or functional assay; remark: listed apart in the source
[3] = molecular target: T1, human LAG-3 expressed on cells; assay: cell-based or functional assay
[4] = molecular target: T2, recombinant human LAG-3-Fc; assay: BLI (Octet); human LAG-3-Fc captured on protein G biosensors, 1:1 fit
Procedure: Binding kinetics for multi-valent and bispecific VH were also measured in real-time bio-layer interferometer based biosensor Octet (ForteBio). […] All the binding studies were performed in HBS-ET Octet kinetics buffer. Biosensors were washed in Octet kinetics buffer in between different steps. […] The contact time for each of the association steps was 150 seconds and the dissociation step was 400 seconds. […] To compare the constructs, kinetic association (kₐ) and dissociation (kd) rate constants were determined by processing and fitting the data to a 1:1 binding model using ForteBio Analysis software.

[5] = molecular target: T4, recombinant human PD-1 Fc chimera (human, UniProt Q15116 25-167); assay: HTRF binding; His-tagged construct with PD-1-Fc, anti-human-Fc cryptate and anti-His-D2
T4 construct: Bought Fc chimera; also called human PD-1 (R&D systems cat no. 1086-PD); PD1 antigen
T4 sequence (Q15116 25-167 limits assumed, change not shown): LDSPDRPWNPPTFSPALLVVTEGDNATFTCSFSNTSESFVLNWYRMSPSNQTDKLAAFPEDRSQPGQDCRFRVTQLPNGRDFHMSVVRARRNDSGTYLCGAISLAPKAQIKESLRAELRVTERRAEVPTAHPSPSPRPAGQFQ
Procedure: Binding to PD-1 was measured by HTRF (homogeneous time resolved fluorescence). Serially diluted HIS-tagged constructs were prepared in assay buffer containing PBS, 0.1% BSA and 0.4M Potassium Fluoride. […] Time-resolved fluorescent emission at 620 nm and 665 nm was measured following excitation at 337 nm on the BMG PHERAstar plate reader. The HTRF ratio were calculated ((665 nm emission/620 nm emission)*10000) and the data corrected for (non-specific binding) to give the specific binding signal. EC50 were calculated from the titration curve (table 8 below).

[6] = molecular target: T2, recombinant human LAG-3-Fc; assay: HTRF binding; His-tagged construct with LAG-3-Fc, anti-human-Fc cryptate and anti-His-D2
[7] = molecular target: T2, recombinant human LAG-3-Fc; assay: competition ELISA; LAG-3-Fc pre-incubated with VH, binding to coated LSECtin
Source text: (§1) The plate was blocked with 3% Marvel skimmed milk powder in PBS. […] Wash steps were done 3 times with PBS 0.05% Tween. Colour was developed using TMB and 0.5M sulphuric acid solution.

[8] = molecular target: T2, recombinant human LAG-3-Fc; assay: competition ELISA; LAG-3-Fc pre-incubated with VH, binding to coated Galectin-3
Source text: as §1

[9] = molecular target: T5, LAG-3 and PD-1 on activated human T cells (human, UniProt P18627 23-525; Q15116 25-288); assay: flow cytometry (Intellicyte) on anti-CD3/anti-CD28 stimulated human CD4+ T cells; His-tagged VH detected with anti-HIS biotin and streptavidin AlexaFluor488
T5 construct: also called huCD4+ T cells; huCD8+ T cells
T5 sequence (Q15116 25-288 limits assumed, one chain of several): as the sequence (Q15116 25-288 limits assumed) above
Procedure: (§2) FIG. 2. CD4+ T cells were stimulated with anti-CD3 and anti-CD28. Cells were stained with HIS tagged VH plus anti-HIS tag labelled with biotin and streptavidin AlexaFluor488. Cells were analysed using Intellicyte® cytometer.
(§3) Binding onto human activated T cells was measured by cytometry. PBMC or magnetically isolated T cells were isolated from leukocytes cones and cells were incubated in 96 well plates coated with anti-CD3 (OKT3) at 5 μg/ml. Anti-CD28 (CD28.2) was added at 1 μg/ml in RPMI media and foetal bovine serum. After 72-96 hours, cells were harvested and stained using standard flow cytometry methods. […] Fluorescently labelled anti-CD4 and anti-CD8 were included in PBMC cultures and a live/dead dye. Stained cells were analysed using the IQue cytometer (Intellicyte). EC50 were calculated from the titration curve of median fluorescence of Humabody, gating on CD4+ or CD8+ cells if using mixed cells.

[10] = molecular target: T3, human PD-1 expressed on cells; assay: FMAT inhibition of human Fc tagged PD-L1 binding to CHO human PD-1 cells
Procedure: All reagents and serially diluted VH were prepared in FMAT assay buffer. […] Plates were incubated for 2 hours at room temperature then fluorescence measured in the FL2 (502 nm-537 nm) and FL5 (677-800 nm) channels on the Mirrorball plate reader (TTP) following excitation at 488 nm and 640 nm. Data was expressed as a % of the total binding control (i.e. % control) after subtraction of the background signal determined from the non-specific binding control wells.

[11] = molecular target: T3, human PD-1 expressed on cells; assay: flow cytometry (Intellicyte) on anti-CD3/anti-CD28 stimulated human CD4+ T cells; His-tagged VH detected with anti-HIS biotin and streptavidin AlexaFluor488
Procedure: as §2, §3

Binder	potency in the PD-1:PD-L1 NFAT-luciferase reporter assay, fold lower than monoclonal antibodies [1] [fold]	EC50 (M), NFAT-Luciferase Reporter Gene assay (PD-1:PD-L1) [2] [M]	EC50 (M), NFAT-Luciferase Reporter Gene assay (LAG-3:MHCII) [3] [M]	Kd [4] [nM]	koff [4] [s⁻¹]	kon [4] [M⁻¹ s⁻¹]	EC50 [5] [nM]	EC50 [6] [nM]	IC50 [7] [nM]	IC50 [8] [nM]	EC50 (read off the curve) [9] [nM]	IC50 [10] [nM]	EC50 (read off the curve) [11] [nM]
VH1.1-6GS-VH1.1-6GS-VH2.63-His6 (bispecific antibody, Single-chain fusion of two anti-LAG-3 VH 1.1 and one anti-PD-1 VH 2.63; The entry includes AAA-His6; also called 1.1-6GS-1.1-6GS-2.63) EVQLVESGGGVVRPGGSLRLSCSASGFTFDDYGMSWVRQAPGKGLEWVSGIHWNGGNSGYADSVKGRFTISRDNAKNSLYLQMNSLRAEDTALYYCARIPREDCSSASCYTDAIDFWGPGTMVTVSSGGGGSGGGGSGGGGSGGGGSGGGGSGGGGSEVQLVESGGGVVRPGGSLRLSCSASGFTFDDYGMSWVRQAPGKGLEWVSGIHWNGGNSGYADSVKGRFTISRDNAKNSLYLQMNSLRAEDTALYYCARIPREDCSSASCYTDAIDFWGPGTMVTVSSGGGGSGGGGSGGGGSGGGGSGGGGSGGGGSEVQLVESGGGLVKPGGSLRLSCAASGFTFSDSSMTWMRQAPGKGLEWVSYISSGGGVKFYTDSVKGRFTISRDNAKNSLYLQMNSLRADDTAVYYCAREAPLRLGESPHDAFDISGQGTMVTVSSAAAHHHHHH	> 30	4.2e-08	3.3e-09	0.399	0.000305	764000	0.59	0.51					
VH1.1-6GS-VH1.1-9GS-VH2.63-His6 (bispecific antibody, Single-chain fusion of two anti-LAG-3 VH 1.1 and one anti-PD-1 VH 2.63; The entry includes AAA-His6; also called 1.1-6GS-1.1-9GS-2.63) EVQLVESGGGVVRPGGSLRLSCSASGFTFDDYGMSWVRQAPGKGLEWVSGIHWNGGNSGYADSVKGRFTISRDNAKNSLYLQMNSLRAEDTALYYCARIPREDCSSASCYTDAIDFWGPGTMVTVSSGGGGSGGGGSGGGGSGGGGSGGGGSGGGGSEVQLVESGGGVVRPGGSLRLSCSASGFTFDDYGMSWVRQAPGKGLEWVSGIHWNGGNSGYADSVKGRFTISRDNAKNSLYLQMNSLRAEDTALYYCARIPREDCSSASCYTDAIDFWGPGTMVTVSSGGGGSGGGGSGGGGSGGGGSGGGGSGGGGSGGGGSGGGGSGGGGSEVQLVESGGGLVKPGGSLRLSCAASGFTFSDSSMTWMRQAPGKGLEWVSYISSGGGVKFYTDSVKGRFTISRDNAKNSLYLQMNSLRADDTAVYYCAREAPLRLGESPHDAFDISGQGTMVTVSSAAAHHHHHH	> 30	3e-08	3.2e-09	0.397	0.000303	762000	0.6	0.78	54	38	~2		
VH 2.80 (VHH, Human VH single domain antibody against PD-1) VHH: EVQLVESGGGLVKPGGSLRLSCAASGFTFSDSSMTWMRQAPGKGLEWVSYISSGGGVKFYADSVKGRFTISRDNAKNSLYLQMNSLRAEDTAVYYCAREAPLRLGESPHDAFDISGQGTMVTVSS												1.82	

Continued, values first:

potency in the PD-1:PD-L1 NFAT-luciferase reporter assay, fold lower than monoclonal antibodies [1] [fold]	EC50 (M), NFAT-Luciferase Reporter Gene assay (PD-1:PD-L1) [2] [M]	EC50 (M), NFAT-Luciferase Reporter Gene assay (LAG-3:MHCII) [3] [M]	Kd [4] [nM]	koff [4] [s⁻¹]	kon [4] [M⁻¹ s⁻¹]	EC50 [5] [nM]	EC50 [6] [nM]	IC50 [7] [nM]	IC50 [8] [nM]	EC50 (read off the curve) [9] [nM]	IC50 [10] [nM]	EC50 (read off the curve) [11] [nM]	Binder
	1.2e-08										4.5	~2	VH 2.63 (VHH, Human VH single domain antibody against PD-1) VHH: EVQLVESGGGLVKPGGSLRLSCAASGFTFSDSSMTWMRQAPGKGLEWVSYISSGGGVKFYTDSVKGRFTISRDNAKNSLYLQMNSLRADDTAVYYCAREAPLRLGESPHDAFDISGQGTMVTVSS
	1.4e-08										2.8		VH 2.92 (VHH, Human VH single domain antibody against PD-1) VHH: EVQLVESGGGLVKPGGSLRLSCAASGFTFSDESMTWMRQAPGKGLEWVSYISSGGGVKFYADSVKGRFTISRDNAKNSLYLQMNSLRAEDTAVYYCAREAPLRLGESPHDAFDISGQGTMVTVSS
